23 sequences from the DeepSol protein solubility set can be followed below.

A short description of the data set: soluble on expression in E. coli; label from the status in PepcDB or PDB records.
Turning to “MGSDKIHHHHHHMQIEFYRRKYGRGCRPHLSLCIEGQHYHVDTSPADYGMNLITHAHTDHYGQRNMDNSRAVASRESAAILEACTGKVFSGVTFEVGSRIRLSDTKIKTYPTYHMHGSAAFYFQDSDILITGDVKDYSKLPKCKILVTEATYGHPSHIFEEEVEKLLKVASSNKAVFGAYPIGKAQRVAEILSKDGFGFSAEEKIARICSAVGLKPSDGPLIASPRNLPLYGGGYILTAHKFYRWPRITLSDHLDYRGILEMIDHCEPEEVLFYHGKPSKRLLEHLKNEGIVCRTLNDLPVMK”, the “soluble on expression in E. coli” value is “not soluble”. As for “MRILWILPYSPWPTTSGGKTRQYHLLRSLAARGHRITVLLHSKQPVSAEDRQALEPFLERLVVLPRRPLRSLSTLLAALFAPYPLLASVNGLSAELQRTATELLREPWDVVQVEHSYSFQPYERPLRDAGQPFVLTEHNVESSLGAATYDRLPGWALPFVRYDQWRYRRWERRVMSQAAAVVAVTEKDARQLGAMLGRPVPVVVNGVDCEHFATARPTPEAQRVLFLGNYEYAPNVDAVEWMLDEILPRVWAHCPEARMSVCGYALPAEWAQRWSDPRIEWQGFVPDLLQLQSSSSVFLAALRHGGGSKLKVLEALAAGLPLASTAQGVSGLELRDGEDYLGGESAEQLANAVVRLLQDPAQARALGENGRAYVRRAHDWSVAASQLEQVYAGLAEGAPACA”, the “soluble on expression in E. coli” value is “not soluble”.

As to “MRLLILGGTGDAAELSAKVATIPGIEAIASLAGRTREPSLPSGNVRVGGFGGAAGLADYLRQMQVDVLIDATHPFAAQISENAALAADEVEIPRLMLIRPPWVKVAGDRWIEVDTTSAAAAILKNQAKRVFLTVGRQELSAFAHLHDIWFLMRMIDPPAADALVPPGVILCDRGPFTLPQERDILIQHNIDTLVSKNSGGDATYAKIIAARELGVQVVMVNRPVVPACEQVTDADAAVAWLLEK”, the “soluble on expression in E. coli” value is “not soluble”.

For the sequence “MPVSGYLRIKGKRVGVEIFPFQAYHSQIKEVRQQVGNMAILPLRTQVRGPAPSANIESDIIDESLYYFKANVFFRTYEIKSDVDRVLIYVTLYITECLKKLNRSTSKAQGQQDMYSLAISKFDIPGDAGFPLNAVYAKPQTAQDADLMRQYLLQLRHETGNRVLEKVFNTEDGKPNKWWTCFAKKKFMEKSLAGPGQLEHHHHHH”, the “soluble on expression in E. coli” value is given as “not soluble”. The same measure for “MIRIDSVTKRYPDGTVAVDRLSLEIPDRSITVLVGPSGCGKTTTLRMINRMVEPSEGTILLDGADITKQPVNTLRRSMGYVIQNAGLFQHRTIVDNIATVPRMLGWGKERARSRARELMERVGLDASLARRYPYQLSGGQQQRVGVARALASDPPVLLMDEPFSAVDPVVRKGLQEELLRIQDELGKTIVFVTHDIDEAIRLGTMVAVMRTGGHLAQFAPPAELLSAPADAFVEDFLGTDRGIRRLSFFPSAGLELLTTPVVAIDSTAEQIAARGTPDVPYLLVTDVDGKALGWSEPKDLTAGKVVPERLLPYGRPFESGKDSLRAALDCAVLSPTGWAVAVDGTGRVVGVVSQETIGEAIRGAHAERRKADLAGLEHHHHHH”: “not soluble”; for “MGSDKIHHHHHHMNAAENGLIPGAANSAGTKAYVARFAGTLADEHFSDFLNTRIKLSSLGVGTFPGGVDDVTDVAVAAIVARALQSGINVVDTGANYRLGRAGRAVGVGIAKAIAAGIQREEFFVVGKGGFLTFPDGRPEDPLTFFREEVAAKGLGKEEDLAQGVHCLSPEYIAWQLDTLRAQTGLGTLDVFLVDQPEVHIPLIGKEQMYRKLTDVFTMLEAAVQANKIRYYGISTFNACRVETDNTLFQSLTSLIGLAEKAAGQGNRHHLRVVQLPFNALMPEAYTRFSQVTGQGNIGSTIQAAFQLKLTIMASHPLGKGLLAREEVPSLQEAMPELADAAQRAIQFVRSTPGIGVTLVGLSTPLHLPDFLAVARQLPLSKERYLAMFEKEQ”: “not soluble”.

Regarding “MGSDKIHHHHHHACCQGAASSGNAGKNASRVRIASNDSAKLVPDKALNDASCVLAGLPVDKASGKLYALTRTKEWKNHARYMDQIWNVFRQTAPRLVAFSQTELEDINTRCHTLFYPFGGPDFLFANAFFPEMDTYVLIGLEPAGTAPKVKHPSAETYRLYQNAVSNVLNLSFFNDMDKELANDTIDGVVPIYSLLMARGNRKIVSIQEVWLSETGDLFERKEGDTIRNTCSAGMEVRFFRPGASRLQTLYYFCTDISNEGLQANRPLQAFMDRFDAETTATFVKSASYLMHEPAFSRIRETILQKSSAVVQDDSSIPLSCFDPEVWSVTLYGTFYKPISTFSQYLQPQLRDAYQLGDPNPLNFRIGYARQSNLQVARRK”, the “soluble on expression in E. coli” value was “not soluble”. In the case of “MAEKAENLPSSSAEASEEPSPQTGPNVNQKPSILVLGMAGSGKTTFVQRLTAFLHARKTPPYVINLDPAVSKVPYPVNVDIRDTVKYKEVMKEFGMGPNGAIMTCLNLMCTRFDKVIELINKRSSDFSVCLLDTPGQIEAFTWSASGSIITDSLASSHPTVVMYIVDSARATNPTTFMSNMLYACSILYRTKLPFIVVFNKADIVKPTFALKWMQDFERFDEALEDARSSYMNDLSRSLSLVLDEFYCGLKTVCVSSATGEGFEDVMTAIDESVEAYKKEYVPMYEKVLAEKKLLDEEERKKRDEETLKGKAVHDLNKVANPDEFLESELNSKIDRIHLGGVDEENEEDAELERS”, the “soluble on expression in E. coli” value is given as “not soluble”. In the case of “MTFEEYQKEAQKTALYPEAYRLVYPALGLAGEAGELANKVKKVLRDHGGRLSEEAREAILAELGDVLWYVAQVATDLGESLEAVAQANLAKLRSRKERGRLGGDGDDR”, the “soluble on expression in E. coli” value is “soluble”. With “MGSDKIHHHHHHMTFKNDVDGCSYPGILSASRSTDIPAFYAEWFSRRLRDGYVVWKSPFNQKCYSVCFEKAGGIVFWTKNPKPLMPFLDEVSELGYDYYFQFTVNDYESEGFEPNVPPLDERIETFRSLSQKLGKERVIWRFDPICLTRELDVEGIMARLRSIGECLKGYTEQLVISFVDVHAYTKVQRNIKTADGFCLREPSMEEQDELARRISSYAKEIGVSPSACGERRSFAHFGILPNKCIDGELFKRICRKGNIKLQKHLGTYIDQYSLLSPQKKDVTLCKDKGQRKECGCVESKDIGMYNTCNHMCVYCYANTSQRVVEKNRVLHDVNGESLIPTSRTVEE”, the “soluble on expression in E. coli” value is recorded as “not soluble”. As to “MYNSKQFLRTVNWHFVNSCNMSCKYCFVSCCKELPLEESISVLEKLKGHFDRINFVGGEPTVSSKLIPLVKKAKEYGFIVSMVTNGFNLYHKPETFDEILTDFSIIGISIDSLNENTNVLIGRSVKNSVLSRDDYIDLCKKIKLAGCKLKINTVVSRVNLDENFNDFYETVMPDRIKLLQVLRPAGRLKQDYTDFLIEEDDYLEFVQRHHKFSEVICSENNELMLNSYYILNSDACFLDNKSGCISGSLLENDLKSVLKNVYVDENKYRARYA”, the “soluble on expression in E. coli” value is recorded as “not soluble”. For the sequence “TDAQKRRRAVGHALAYAGYAEIIPSPFMDPEVFDVWGLAADDERRKTVSVLNPLEAERNVLSTSLLPSMLDAVKRNVARGHNDFSLFGLQQVAFEHGSGVSPMPSVASRPEESVVAELVDSLPNQPLHVATVGTGNIEFEGPWGKGRAYTFADAIESARAVARAAGVTLELANADALPWHPGRCAALLIDGTPVGYAGELHPQILEKAGLPARTCAMELDLSALP”, the “soluble on expression in E. coli” value is recorded as “not soluble”.

As to “MPEPDKQATRKKRTTSSLTDSTVFDPAKQVLWSRPGYLVRRLNQIHYALFYEECKTQNVTPVQYGVLTALSLSPWLDQTAIGMELGLDRTTTADVIKRLQERGLVERRVNPNDKRSRQAVITQEGLRIMGLLQGGMARAQQRLLEPLSPRNREIFMKLLSTLVDANNQYSRTALKAM”, the “soluble on expression in E. coli” value is reported as “not soluble”. Consider “MSLRGGETLEYDPDVLDENVEIEVGDVVEIKKFEKTEVYVSGYVSRPGVYEISPKENVTLEKLLSMAGGIKGTLEEVDSIVVTRDGSVITLSPNNLDFSVKPGDVVNVKEFVPKKAYVLGYVRNPGLYTFGKNEAFTLRNLIAKAGGFVDEGQVVSVKVAGKEYSEGHHHHHH”, for which the “soluble on expression in E. coli” value is given as “soluble”. Regarding “QVQLVESGGGLVQPGGSLRLSCAASGFTFSSYAMSWFRQAPGKEREIVSAVSGSGGSTYYADSVRGRFTISRDNSKNTLYLQMNSLRAEDTAVYYCAREPRIPRPPSFDYWGQGTLVTVSS”, the “soluble on expression in E. coli” value is “soluble”.

Consider “MNRIAKLLKTKYPIVQGPMAGITLGEFASTVSEAGGLGVIASAGLSPEKLKEEIEKVKNRTDKPFAVNIPIYQPGSEKNLETALKADVGIIYTSAGSPEKYTERVKESGAKVIHKVSRLKEGLKAEKAGVDAVVAMGFEAGGIIGRSGVTSFCLIPELADNLSIPVVAAGGIADERGFAAALILGAEGVEIGTRLLATKECPVPESIKQAILKATCDSTMVIESPVVMRALKPELSGDSENPALGGQVSGLIKEILTVEEVIRKIAEGLNKAKF”, for which the “soluble on expression in E. coli” value is listed as “not soluble”. Take “MGSDKIHHHHHHMQPFSSYTVREVIKGGNSMELRSFGNTDIQVSPLGFGAGHIGSDDLSDQEASYILHQALDTGIRLFDTARGYGLSEKRLGQFLKQRRHDVVLSTKVGYDVPRTEDWTFQAVAGGIDQALLTMQTDFIDIVHLHSCSKEILAQDDVIEALERAKQAGKVRLIAYSGDREDLDYAITTGRFDSFQTSVNLYDQRALMDSVPLIHQQQKGIIAKRPIANAPWRFASRPVGQYVEPYWERAQQLDFPLEEASWLETALRFTVFEPGVTSAIIGTANPEHLVQNIRLLEKGALPAERVADLKRRFQEQDENWLQQT”: the “soluble on expression in E. coli” value is reported as “not soluble”. Turning to “SAPEENAGTELLLQSFERRFLAARTLRSFPWQSLEAKLRDSSDSELLRDILHKTVKHPVCVKHPPSVKYARCFLSELIKKHEAVHTEPLDELYEALAETLMAKESTQGHRSYLLPSGGSVTLSESTAIISYGTTGLVTWDAALYLAEWAIENPAVFTNRTVLELGSGAGLTGLAICKMCRPRAYIFSDCHSRVLEQLRGNVLLNGLSLEADITAKLDSPRVTVAQLDWDVATVHQLSAFQPDVVIAADVLYCPEAIMSLVGVLRRLAACREDQRAPEVYVAFTVRNPETCQLFTTELGRAGIRWEVEPRHEQKLFPYEEHLEMAMLNLTL”, the “soluble on expression in E. coli” value is “soluble”. With “MEDIKIKEIFENIYEVDLGDGLKRIATKSIVKGKKVYDEKIIKIGDEEYRIWNPNKSKLAAAIIKGLKVMPIKRDSKILYLGASAGTTPSHVADIADKGIVYAIEYAPRIMRELLDACAERENIIPILGDANKPQEYANIVEKVDVIYEDVAQPNQAEILIKNAKWFLKKGGYGMIAIKARSIDVTKDPKEIFKEQKEILEAGGFKIVDEVDIEPFEKDHVMFVGIWEGK”, the “soluble on expression in E. coli” value is reported as “soluble”. “MCMMSHNKAFFLSLQHAAVSGVAVCLSVRRGAGSVPAGNRGKKTIITEYRITGTRALARCPTKPVTSMWNSSWTSRLEHHHHHH”: the “soluble on expression in E. coli” value was “not soluble”. In the case of “MGSDKIHHHHHHMHIAIASGKGGTGKTTLAVNLAVHAARSGHPTVLADCDVEEPNAHLFMPGEPVMTLTHSLPVPAVDKAKCLGDSCRKCVEECRFKALTWMKGVMAFSELCHGCGLCMMICPSGAITETTRPVGTVEIRTPQLPVPAGASAGAAALTLVSGRMRISEAMAPPLIREVKQQAHAVSAGTPNGLTFWDSPPGTSCPMISTVENADYSVLVTEPTPFGLHDLRLAVETLHTLGRPFGVVINRDGMGDGRVREYLDRHRIPLLGTVPHSPQAAQAVSSGRLLIDAVDGMTGCFDRLLHTVLRHAHNAAQHGQEKTA”, the “soluble on expression in E. coli” value was “not soluble”. For “MPTIQSVRRTQSGRPGKRAINLSLSADVLDAARQLDINISQVCDTYLREVVRHEQERRWREEHADFITAYNATIEAENLPLDEWRSF”, the “soluble on expression in E. coli” value is “not soluble”. For “LFSYKSTMWQFINKVTSDRINILNQYYEKFGIHILPQQVTNYRSAGIIVMDNIYVT”, the “soluble on expression in E. coli” value is “not soluble”.
